Experimental data from paper PMC11602160, “Modulation of UPF1 catalytic activity upon interaction of SARS-CoV-2 Nucleocapsid protein with factors involved in nonsense mediated-mRNA decay”.

Columns and labels:
UPF1 (CH-helicase core) = target: T1, UPF1 (CH-helicase core) (Homo sapiens, UniProt Q92900 115-352+364-925, internal_change); test: fluorescence anisotropy; 1 mM Mg2+; Fluorescence anisotropy: 20 mM HEPES pH 7.5, 100 mM NaCl, 1 mM MgCl2, 100 µg/ml BSA, 5 nM RNA, 25 °C, 1 h; one-site fit with Hill slope. SEC conditions not in the material; conditions: protein: recombinant; tags: His6 or His-GST fusion, cleavable (TEV/3C); label: 5' 6-FAM; single strand
T1 sequence: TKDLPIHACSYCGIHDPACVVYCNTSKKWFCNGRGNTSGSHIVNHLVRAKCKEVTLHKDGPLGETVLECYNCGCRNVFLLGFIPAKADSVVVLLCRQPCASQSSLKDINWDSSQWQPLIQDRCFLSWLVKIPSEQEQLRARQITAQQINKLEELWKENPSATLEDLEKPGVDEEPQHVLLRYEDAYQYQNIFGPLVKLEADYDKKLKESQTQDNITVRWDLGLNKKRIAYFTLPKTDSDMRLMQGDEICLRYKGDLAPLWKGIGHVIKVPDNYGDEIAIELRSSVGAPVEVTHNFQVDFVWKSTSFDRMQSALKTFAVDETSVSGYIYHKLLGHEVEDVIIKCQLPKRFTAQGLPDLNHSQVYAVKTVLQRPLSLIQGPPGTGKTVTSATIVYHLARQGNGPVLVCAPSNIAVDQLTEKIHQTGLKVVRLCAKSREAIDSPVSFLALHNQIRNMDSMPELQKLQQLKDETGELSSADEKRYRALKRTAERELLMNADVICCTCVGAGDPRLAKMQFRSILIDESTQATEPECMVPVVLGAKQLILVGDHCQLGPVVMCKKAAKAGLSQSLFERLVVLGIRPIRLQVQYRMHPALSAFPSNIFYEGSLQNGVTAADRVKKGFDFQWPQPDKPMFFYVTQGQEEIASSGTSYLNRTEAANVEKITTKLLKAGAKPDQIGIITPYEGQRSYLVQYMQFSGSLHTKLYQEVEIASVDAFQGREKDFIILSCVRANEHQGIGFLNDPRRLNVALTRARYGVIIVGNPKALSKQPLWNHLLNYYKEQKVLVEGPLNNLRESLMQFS

[1] = target: Nfl (Nucleocapsid full-length) (SARS-CoV-2, UniProt P0DTC9 1-419); test: as above; conditions: protein: recombinant; tags: His6 or His-GST fusion, cleavable (TEV/3C); chain copies: 2; label: 5' 6-FAM; single strand

UUUUUUUUUUUU (ssRNA) [U12 (12-mer poly-U RNA)]
Kd (UPF1 (CH-helicase core)): ~50 nM
Kd [1]: 82 nM
